Ends that are not written are not given here.
B1: ExbD periplasmic domain (E. coli ExbD residues 59-141) (domain or fragment)
chain: GRPEKPVYLSVKADNSMFIGNDPVTDETMITALNALTEGKKDTTIFFRADKTVDYETLMKVMDTLHQAGYLKIGLVGEETAKAK
notes: single glycine residue left upstream of Arg-59 after proteolytic removal of the SUMO tag; ExbD, E. coli, periplasmic domain, residues 59-141 (begins at Arg-59); codon-optimised synthetic gene in pETHSUL; the methods and legends say 59-141; Two copies of this domain hold one D-box peptide in the crystals and by ITC; also called ExbD_(59-141); ExbD C-terminal periplasmic domain; source: E. coli …

Columns and labels:
[1] = biological target: the molecule itself; assay: crystal structure; ExbD periplasmic domain mixed with the D-box peptide; crystals from ammonium sulfate; orthorhombic and tetragonal forms, about 1.4 A
[2] = biological target: B1; assay: ITC; D-box peptide (1 mM) injected into 100 uM ExbD protein at 288 K; 10 mM MES pH 5.3, 60 mM NaCl; two-state binding model; settings: both partners purified
[3] = biological target: B1; assay: fluorescence polarisation; fluorescence anisotropy; 100 nM AF488-labeled peptide, ExbD protein varied; 40 mM Tris pH 8.0, 150 mM NaCl; room temperature; settings: both partners purified

B1: binds [1].

B2: D-box peptide (residues 43 to 54 of E. coli TonB) (peptide)
peptide: QPISVTMVTPAD
notes: TonB, E. coli, residues 43-54, holds the D-box motif; The description of the crystal structure numbers the peptide Gln-55 to Thr-63, that is 12 higher than the TonB numbers; also called TonB D-box peptide; source: synthetic peptide (VWR Scientific)
With B2 the Kd [2] was 19 ± 1 µM and the “stoichiometry N” value [2] was 0.5 D-box peptide per ExbD.

B3: AF488-labeled D-box peptide (QPISVTMVTPADC) (peptide)
peptide: QPISVTMVTPADC(AF488 maleimide)
notes: TonB, E. coli, residues 43-54 (D-box peptide); cysteine added at the C-terminus for labelling with the maleimide dye; not a TonB residue; also called fluorescently labeled D-box peptide; fluorophore-labeled D-box peptide; source: synthetic peptide (Biomatik Corporation), labelled with AF488-maleimide, purified on a C18 column
B3 gave a Kd [3] of 45 ± 9 µM.

— paper PMC10907165, “Discovery and structural characterization of the D-box, a conserved TonB motif that couples an inner-membrane motor to outer-membrane transport” (The Journal of Biological Chemistry, 2024)
